Source: patent US20230312755A1 (ANGITIA, published 2023)
Where a chain is given by its changes, count along the chain named. Values belong to the binder of their own block, whether it stands above or below them.

Tests used:
[1] = molecular target: T1, cynomolgus monkey Sclerostin (cynomolgus monkey, UniProt Q9BG78 24-213 (Chlorocebus aethiops entry)); test: BLI (Gator), antibody on anti-hFc biosensor, Sclerostin as analyte, 1:1 global fit
T1 chain: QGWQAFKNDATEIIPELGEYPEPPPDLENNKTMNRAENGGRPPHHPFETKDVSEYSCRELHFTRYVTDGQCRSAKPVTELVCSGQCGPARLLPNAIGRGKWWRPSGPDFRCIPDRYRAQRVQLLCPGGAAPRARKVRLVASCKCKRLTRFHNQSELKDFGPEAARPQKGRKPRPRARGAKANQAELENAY
Method: (§1) The binding affinity of humanized anti-Sclerostin antibodies to human and cynomolgus monkey Sclerostin were determined with bio-layer interferometry using a Gator instrument (Probe Life). Antibodies were immobilized on an anti-hFc biosensor, using a […]. Serial dilutions of human Sclerostin and cynomolgus monkey Sclerostin from 4 μg/ml by two folds in kinetics buffer (PBS, pH 7.4, 0.05% Tween-20, 0.2% BSA, 10 μM biotin) were used as the analytes. Affinity (KD) and kinetic parameters (Kₒₙ and Koff) were calculated from a global fit (1:1) of the data using the Gator software.

human DKK1 [2] = molecular target: T2, human DKK1 (human, UniProt O94907 32-266); test: BLI (Gator), antibody on anti-hFc biosensor, antigen as analyte, 1:1 global fit
T2 construct: Analyte in BLI and the protein added in the reporter assay; also called hDKK1; Dickkopf-1
T2 sequence (looked up): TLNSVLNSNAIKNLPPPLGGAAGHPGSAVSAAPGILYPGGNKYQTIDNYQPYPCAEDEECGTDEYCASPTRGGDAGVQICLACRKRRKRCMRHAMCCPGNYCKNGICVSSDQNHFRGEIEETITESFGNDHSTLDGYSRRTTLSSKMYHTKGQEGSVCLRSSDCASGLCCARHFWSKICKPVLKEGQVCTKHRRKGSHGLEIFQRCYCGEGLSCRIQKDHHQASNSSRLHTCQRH
Method: (§2) Binding kinetics and affinities of anti-Sclerostin×anti-DKK1 and anti-Sclerostin×anti-RANKL bispecific antibodies were measured with Gator (Probe Life) bio-layer interferometry (BLI). Antibodies were immobilized on an anti-hFc biosensor, using a 5 μg/ml solution. Serial dilutions of sclerostin (from 1 μg/ml), DKK1 (from 2 μg/ml), or RANKL (from 4 μg/ml) by two folds in kinetics buffer (PBS, pH 7.4, 0.05% Tween-20, 0.2% BSA) were used as the analytes. Affinity (KD) and kinetic parameters (Kₒₙ and Koff) were calculated from a global fit (1:1) of the data using the Gator software.

human Sclerostin [3] = molecular target: T3, human Sclerostin (human, UniProt Q9BQB4 24-213); test: as above
T3 construct: Analyte of the BLI assays and the protein added in the reporter assays; also called hSclerostin; SOST
T3 sequence: T1 chain with D26E, Q70P, A129E, P161T, G178S
Method: as §2

human Sclerostin [4] = molecular target: T3, human Sclerostin; test: BLI (Gator), antibody on anti-hFc biosensor, antigen as analyte; koff at LOD, KD estimated
Method: as §2

human DKK1 [5] = molecular target: T2, human DKK1; test: cell-based or functional assay
human Sclerostin [6] = molecular target: T3, human Sclerostin; test: cell-based or functional assay
human Sclerostin [7] = molecular target: T3, human Sclerostin; test: cell-based or functional assay; remark: listed apart in the source
[8] = molecular target: T4, His-tagged human Sclerostin (NCBI reference No. NP_079513.1) (human, UniProt Q9BQB4 24-213); test: ELISA, plate coated with His-tagged human Sclerostin
T4 construct: also called mouse His-tagged human Sclerostin; not shown: His tag
T4 sequence: T1 chain with D26E, Q70P, A129E, P161T, G178S
Method: The ability of antibodies to specifically bind Sclerostin was determined by an ELISA capture assay. Plates were coated, in a 96-well half-area, with 100 μl/well of mouse His-tagged human Sclerostin (NCBI reference No. is NP_079513.1) [[…]], in coating buffer (PBS, pH 7.4), and incubated at RT for one hour, or 4° C. overnight. The plates were washed once with 100 μl/well of washing solution (PBS containing 0.2% Tween20, BIO-RAD). Plates were then incubated in blocking solution (PBS containing 1% BSA, 1% goat serum and 0.5% Tween20; 100 μl/well) for one hour at room temperature (RT). Anti-Sclerostin antibodies at various concentrations (1000, 333.3, 111.1, 37.0, 12.3, 4.1, 1.4, 0.5, 0.15, 0.05 ng/ml), a positive control antibody Romosozumab or non-Sclerostin related IgG (human or rat IgG, negative control), were then added to each well in 20 μl/well of blocking solution, and plates were incubated at RT for one hour. NeutrAvidin HRP (Pierce, Catalog #31001) diluted in blocking solution (1:50,000 dilution) was added at to each well ([…]), and the plates were incubated at RT for one hour prior to three washes with […] of washing solution. SuperSignal ELISA Femto (ThermoFisher Scientific, Catalog #37074) working solution was added to the plates ([…]), and the signal was read using a luminometer at 425 nm.

human Sclerostin [9] = molecular target: T3, human Sclerostin; test: BLI (Gator), antibody on anti-hFc biosensor, Sclerostin as analyte, 1:1 global fit
Method: as §1

B3: 91F6D10 (antibody, V domains shown)
VH: QVQLQQSGAELVRPGASVTLSCKASGYTFTDYEMHWVKQTPVHGLEWIGAIDPETGGTAYNQKFKAKAILTADRSSSTAYMELRSLTSEDSAVYYCFSYDYVSYWGQGTLVTVSA
VL: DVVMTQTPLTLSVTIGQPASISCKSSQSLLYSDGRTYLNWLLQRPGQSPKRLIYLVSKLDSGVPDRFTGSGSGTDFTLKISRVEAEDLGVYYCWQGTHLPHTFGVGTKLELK
notes: Murine monoclonal antibody from a hybridoma
- EC50, Sclerostin-neutralisation activity in HEK293/TCF/LEF/Wnt1 cells (luciferase reporter) (human Sclerostin [7]): 60.6 nM
- EC50 [8]: 0.06 nM

B4: 51E8D4 (antibody, V domains shown)
VH: B3 VH with Y32F, M34I, V37M, H43P, A66G, I69L, R74K, E82D, Y95F
VL: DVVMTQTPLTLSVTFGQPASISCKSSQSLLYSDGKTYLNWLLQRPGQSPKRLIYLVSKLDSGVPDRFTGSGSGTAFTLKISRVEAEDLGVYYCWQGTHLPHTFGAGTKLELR
notes: as for B3
- EC50, Sclerostin-neutralisation activity in HEK293/TCF/LEF/Wnt1 cells (luciferase reporter) (human Sclerostin [7]): 63.4 nM
- EC50 [8]: 0.07 nM

B5: 56E5C10 (antibody, V domains shown)
VH: B3 VH with Y32F, K65T
VL: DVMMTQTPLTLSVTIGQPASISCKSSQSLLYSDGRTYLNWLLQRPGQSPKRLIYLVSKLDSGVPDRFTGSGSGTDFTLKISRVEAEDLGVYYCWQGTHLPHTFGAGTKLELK
notes: as for B3
- EC50, Sclerostin-neutralisation activity in HEK293/TCF/LEF/Wnt1 cells (luciferase reporter) (human Sclerostin [7]): 64.2 nM
- EC50 [8]: 0.09 nM

B7: 81B2B6 (antibody, V domains shown)
VH: B3 VH
VL: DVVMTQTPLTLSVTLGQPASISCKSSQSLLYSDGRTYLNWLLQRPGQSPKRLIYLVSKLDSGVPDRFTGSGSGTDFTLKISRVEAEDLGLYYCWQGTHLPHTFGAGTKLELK
notes: as for B3
- EC50, Sclerostin-neutralisation activity in HEK293/TCF/LEF/Wnt1 cells (luciferase reporter) (human Sclerostin [7]): 59.6 nM
- EC50 [8]: 0.01 nM

B8: 71G6G8 (antibody, V domains shown)
VH: B3 VH with V2A, M34I, A66G, M81L, S103T, S114T
VL: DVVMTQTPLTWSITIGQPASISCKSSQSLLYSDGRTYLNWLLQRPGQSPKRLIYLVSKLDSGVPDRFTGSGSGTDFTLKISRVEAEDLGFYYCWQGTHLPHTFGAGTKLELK
notes: Murine anti-Sclerostin monoclonal antibody
- EC50, Sclerostin-neutralisation activity in HEK293/TCF/LEF/Wnt1 cells (luciferase reporter) (human Sclerostin [7]): 67.4 nM
- EC50 [8]: 0.04 nM

B14: 65B12C9 (antibody, V domains shown)
VH: QVQLQQPGAELVKPGASVKLSCKASGYTFTSYWMHWVKQRPGQGLEWIGMIHPNSGSSNYNEKFKSKATLTVDKSSSTAYMQLSSLTSEDSAVYYCANDYDDEGFAYWGQGTLVTVSA
VL: SIVMTQTPKFLLVSAGDRVTITCKASQSVSNDVAWYQQKPGQSPKLLIYYASNRCTGVPDRFTGSGYGTDFTFTISTVQAEDLAVYFCQQDYSSPWTFGGGTKLEIK
notes: as for B3
- EC50, Sclerostin-neutralisation activity in HEK293/TCF/LEF/Wnt1 cells (luciferase reporter) (human Sclerostin [7]): 152 nM
- EC50 [8]: 0.04 nM

The remaining lines, values ahead:

- Kd [1]: 0.35 nM
- koff [1]: 0.000239 s⁻¹
- kon [1]: 755000 M⁻¹ s⁻¹
B1: Romosozumab (antibody, V domains shown)
VH: EVQLVQSGAEVKKPGASVKVSCKASGYTFTDYNMHWVRQAPGQGLEWMGEINPNSGGAGYNQKFKGRVTMTTDTSTSTAYMELRSLRSDDTAVYYCARLGYDDIYDDWYFDVWGQGTTVTVSS
VL: DIQMTQSPSSLSASVGDRVTITCRASQDISNYLNWYQQKPGKAPKLLIYYTSRLLSGVPSRFSGSGSGTDFTLTISSLQPEDFATYYCQQGDTLPYTFGGGTKVEIK

- Kd (human DKK1 [2]): 1.01 nM
- koff (human DKK1 [2]): 0.000301 s⁻¹
- kon (human DKK1 [2]): 297000 M⁻¹ s⁻¹
- kon (human Sclerostin [3]): 1.88e+06 M⁻¹ s⁻¹
- Kd (human Sclerostin [4]): ~0.01 nM
- EC50, DKK1 neutralization activity in HEK293/TCF/LEF/Wnt1 reporter gene assay (human DKK1 [5]): 24.1 nM
- EC50, Sclerostin neutralization activity in HEK293/TCF/LEF/Wnt1 reporter gene assay (human Sclerostin [6]): 23.6 nM
B2: BAP0037 (bispecific antibody, human IgG4 S228P, kappa)
heavy: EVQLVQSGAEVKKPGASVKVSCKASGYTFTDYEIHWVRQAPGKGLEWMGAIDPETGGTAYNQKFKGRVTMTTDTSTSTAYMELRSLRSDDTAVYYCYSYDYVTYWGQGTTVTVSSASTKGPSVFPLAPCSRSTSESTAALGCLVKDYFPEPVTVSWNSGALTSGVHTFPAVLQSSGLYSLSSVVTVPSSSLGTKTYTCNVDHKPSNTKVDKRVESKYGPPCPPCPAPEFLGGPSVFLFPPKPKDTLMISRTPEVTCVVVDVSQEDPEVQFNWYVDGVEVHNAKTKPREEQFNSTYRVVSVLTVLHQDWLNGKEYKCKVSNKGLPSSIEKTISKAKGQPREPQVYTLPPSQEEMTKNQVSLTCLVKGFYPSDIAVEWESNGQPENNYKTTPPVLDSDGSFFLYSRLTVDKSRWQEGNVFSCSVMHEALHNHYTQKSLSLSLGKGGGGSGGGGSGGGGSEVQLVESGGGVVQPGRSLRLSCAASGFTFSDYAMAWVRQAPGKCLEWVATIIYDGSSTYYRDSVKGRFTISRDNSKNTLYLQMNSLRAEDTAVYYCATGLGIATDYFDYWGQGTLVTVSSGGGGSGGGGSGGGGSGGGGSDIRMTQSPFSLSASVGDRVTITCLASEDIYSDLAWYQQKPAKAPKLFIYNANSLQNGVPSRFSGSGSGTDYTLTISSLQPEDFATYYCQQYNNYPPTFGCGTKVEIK
light: DIQMTQSPSSLSASVGDRVTITCRSSQSLLYSDGRTYLNWYQQKPGKSPKRLIYLVSKLDSGVPDRFSGSGSGTDFTLTISSLQPEDFATYYCWQGTHLPHTFGGGTKVEIKRTVAAPSVFIFPPSDEQLKSGTASVVCLLNNFYPREAKVQWKVDNALQSGNSQESVTEQDSKDSTYSLSSTLTLSKADYEKHKVYACEVTHQGLSSPVTKSFNRGEC
notes: Anti-DKK1 scFv (VH-VL) fused to the C-terminus of the heavy chains of the anti-Sclerostin full length antibody (hAb-2)

- EC50, Sclerostin-neutralisation activity in HEK293/TCF/LEF/Wnt1 cells (luciferase reporter) (human Sclerostin [7]): 55.4 nM
- EC50 [8]: 0.04 nM
B6: 97C11D7 (antibody, V domains shown)
VH: B3 VH with T58S, Y60N
VL: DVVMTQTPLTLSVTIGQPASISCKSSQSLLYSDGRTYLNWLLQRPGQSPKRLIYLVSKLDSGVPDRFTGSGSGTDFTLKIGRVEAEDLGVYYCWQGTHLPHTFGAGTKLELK
notes: as for B3

- EC50, Sclerostin-neutralisation activity in HEK293/TCF/LEF/Wnt1 cells (luciferase reporter) (human Sclerostin [7]): 62.8 nM
- EC50 [8]: 0.04 nM
B9: 94B12D3 (antibody, V domains shown)
VH: B3 VH with M34I, C96S
VL: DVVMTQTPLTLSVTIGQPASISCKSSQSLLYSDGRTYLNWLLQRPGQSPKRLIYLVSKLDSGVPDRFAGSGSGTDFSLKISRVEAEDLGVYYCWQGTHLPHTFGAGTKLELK
notes: as for B3

- EC50, Sclerostin-neutralisation activity in HEK293/TCF/LEF/Wnt1 cells (luciferase reporter) (human Sclerostin [7]): 59.4 nM
- EC50 [8]: 0.02 nM
B10: 84F2D5 (antibody, V domains shown)
VH: B3 VH with Y32F, M34I, V37L, H43P, A66G, I69L, R74K
VL: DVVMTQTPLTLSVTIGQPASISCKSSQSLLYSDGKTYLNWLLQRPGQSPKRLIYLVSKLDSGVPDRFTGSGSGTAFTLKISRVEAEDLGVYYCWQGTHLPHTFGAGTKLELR
notes: as for B3

- EC50, Sclerostin-neutralisation activity in HEK293/TCF/LEF/Wnt1 cells (luciferase reporter) (human Sclerostin [7]): 13.9 nM
- Kd (human Sclerostin [9]): 0.41 nM
- koff (human Sclerostin [9]): 0.0003 s⁻¹
- kon (human Sclerostin [9]): 730000 M⁻¹ s⁻¹
- Kd [1]: 0.18 nM
- koff [1]: 0.000229 s⁻¹
- kon [1]: 1.28e+06 M⁻¹ s⁻¹
B11: hAb-1 (antibody, V domains shown)
VH: EVQLVQSGAEVKKPGASVKVSCKASGYTFTDYEIHWVRQAPGKGLEWMGAIDPETGGTAYNQKFKGRVTMTTDTSTSTAYMELRSLRSDDTAVYYCYSYDYVTYWGQGTTVTVSS
VL: DVVMTQSPLSLSVSPGERASLSCKSSQSLLYSDGRTYLNWYLQKPGQSPQRLIYLVSKLDSGVPDRFSGSGSGTDFTLKISRVQSEDVGVYYCWQGTHLPHTFGGGTKVEIK
notes: Humanized 93B1B7; also called humanized anti-Sclerostin antibody hAb-1

- EC50, Sclerostin-neutralisation activity in HEK293/TCF/LEF/Wnt1 cells (luciferase reporter) (human Sclerostin [7]): 15.1 nM
B12: hAb-3 (antibody, V domains shown)
VH: B11 VH
VL: DIQMTQSPSSLSASVGDRVTITCRSSQSLLYSDSRTYLNWLQQKPGKSPKRLIYLVSKLDSGVPDRFSGSGSGTDFTLTISSLQPEDFATYYCWQGTHLPHTFGGGTKVEIK

- Kd (human DKK1 [2]): 0.14 nM
- koff (human DKK1 [2]): 4.32e-05 s⁻¹
- kon (human DKK1 [2]): 309000 M⁻¹ s⁻¹
- Kd (human Sclerostin [3]): 0.052 nM
- koff (human Sclerostin [3]): 9.74e-05 s⁻¹
- kon (human Sclerostin [3]): 1.88e+06 M⁻¹ s⁻¹
- EC50, DKK1 neutralization activity in HEK293/TCF/LEF/Wnt1 reporter gene assay (human DKK1 [5]): 20.9 nM
- EC50, Sclerostin neutralization activity in HEK293/TCF/LEF/Wnt1 reporter gene assay (human Sclerostin [6]): 26.7 nM
B13: BAP0039 (bispecific antibody, human IgG4 S228P, kappa)
heavy: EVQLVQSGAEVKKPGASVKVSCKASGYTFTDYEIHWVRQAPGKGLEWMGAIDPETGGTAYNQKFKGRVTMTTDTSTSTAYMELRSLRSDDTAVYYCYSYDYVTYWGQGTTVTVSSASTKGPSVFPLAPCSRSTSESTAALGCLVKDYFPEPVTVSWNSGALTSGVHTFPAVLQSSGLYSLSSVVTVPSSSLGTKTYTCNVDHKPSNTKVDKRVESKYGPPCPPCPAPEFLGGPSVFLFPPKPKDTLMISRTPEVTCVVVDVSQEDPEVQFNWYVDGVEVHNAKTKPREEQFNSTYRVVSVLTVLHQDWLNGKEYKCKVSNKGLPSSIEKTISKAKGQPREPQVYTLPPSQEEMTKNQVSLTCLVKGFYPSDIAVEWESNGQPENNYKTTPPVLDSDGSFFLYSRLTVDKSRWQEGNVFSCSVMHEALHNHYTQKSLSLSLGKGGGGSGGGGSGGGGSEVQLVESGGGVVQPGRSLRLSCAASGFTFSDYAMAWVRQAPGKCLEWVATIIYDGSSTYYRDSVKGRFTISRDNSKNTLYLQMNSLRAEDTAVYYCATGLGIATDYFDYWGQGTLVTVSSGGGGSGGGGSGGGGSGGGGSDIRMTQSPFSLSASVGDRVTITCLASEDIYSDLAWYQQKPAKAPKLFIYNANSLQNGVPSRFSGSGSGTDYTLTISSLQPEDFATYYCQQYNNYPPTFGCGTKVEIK
light: DVVMTQSPLSLSVSPGERASLSCKSSQSLLYSDGRTYLNWYLQKPGQSPQRLIYLVSKLDSGVPDRFSGSGSGTDFTLKISRVQSEDVGVYYCWQGTHLPHTFGGGTKVEIKRTVAAPSVFIFPPSDEQLKSGTASVVCLLNNFYPREAKVQWKVDNALQSGNSQESVTEQDSKDSTYSLSSTLTLSKADYEKHKVYACEVTHQGLSSPVTKSFNRGEC
notes: Anti-DKK1 scFv (VH-VL) fused to the C-terminus of the heavy chains of the anti-Sclerostin full length antibody (hAb-1)
